{"source": "paper PMC9426524", "system": "CC(=O)C=O", "assay": "purified protein", "data": [{"substance": "E. coli YajL (Escherichia coli K-12)", "values": [{"measurement": "Km", "result": "95 ± 18", "unit": "µM"}]}]}
